One assay concerns the target T1, recombinant human γc (human, UniProt P31785 23-262, limits assumed).
T1 construct: also called common γ chain; IL-2Rγ
T1 sequence (looked up): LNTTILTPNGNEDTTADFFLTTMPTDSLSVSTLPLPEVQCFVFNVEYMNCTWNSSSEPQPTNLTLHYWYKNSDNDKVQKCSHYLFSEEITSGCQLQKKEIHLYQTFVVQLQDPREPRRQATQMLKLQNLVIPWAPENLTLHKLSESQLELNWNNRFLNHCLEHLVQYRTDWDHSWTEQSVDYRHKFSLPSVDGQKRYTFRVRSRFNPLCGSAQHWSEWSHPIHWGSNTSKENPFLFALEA
Briefly: ELISA, scFv titrated (nM) on γc (IL-2Rγc). (In general: An ELISA detects its analyte on a solid surface through an enzyme-linked reagent.)

The target of a further assay is T2, recombinant human IL-2Rβ (human, UniProt P14784 27-240).
T2 construct: also called CD122; interleukin 2 receptor β
T2 sequence (looked up): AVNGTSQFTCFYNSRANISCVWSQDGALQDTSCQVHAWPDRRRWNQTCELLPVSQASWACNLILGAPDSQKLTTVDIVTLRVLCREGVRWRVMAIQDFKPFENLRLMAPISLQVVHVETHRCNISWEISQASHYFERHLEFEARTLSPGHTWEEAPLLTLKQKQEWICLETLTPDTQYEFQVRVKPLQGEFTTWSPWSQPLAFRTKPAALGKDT
Briefly: ELISA, scFv titrated (nM) on IL-2Rβ.

Experimental findings from US20180208663A1 (AGENCY FOR SCIENCE TECHNOLOGY AND RESEARCH, published 2018) are described below.

B1: P1A3_FW2 single chain antibody (scFv)
scFv: EVQLVESGGGLVQPGGSLRLSCAASGGSFSGYYWSWVRQAPGKGLEWVSEINHSGSTNYNPSLKSRFTISRDNSKNTLYLQMNSLRAEDTAVYYCARSPGGYSGGYFQHWGQGTLVTVSSGGGGSGGGGSGGGGSDIQMTQSPSSLSASVGDRVTITCRSSQSLLHSNGYNYLDWYQQKPGKAPKLLIYLGSNRDSGVPSRFSGSGSGTDFTLTISSLQPEDFATYYCMQGTHWPWTFGQGTKVEIK
B1: in the assay with recombinant human γc, the EC50 (read off the curve) (commonly the midpoint of the concentration-response curve) was approximately 60 nM.

B2: P2C4_FW2 single chain antibody (scFv)
scFv: EVQLVQSGAEVKKPGASVKVSCKASGYTFTNYYMHWVRQAPGQGLEWMGAIMPSRGGTSYPQKFQGRVTITADKSTSTAYMELSSLRSEDTAVYYCARGEYYYDSSGYYYWGQGTLVTVSSGGGGSGGGGSGGGGSQSVLTQPPSVSGAPGQRVTISCTGTSSDIGHYDFVSWYQQLPGTAPKLLIYDINNRPSGVPDRFSGSKSGTSASLAITGLQAEDEADYYCSAYTSSDTLVFGGGTKLTVL
As for B2, the “EC50 (read off the curve)” value with recombinant human IL-2Rβ was approximately 1 nM.
